Reference: patent US7285395B2, “Stearoyl-CoA desaturase 4 gene” (Wisconsin Alumni Research Foundation, priority 2004, dated 2007)

Assays:
mSCD4 = test: quantitative RT-PCR of mSCD4 mRNA in hearts of leptin-treated ob/ob mice; type: in vivo, mouse; conditions: heart of leptin-treated ob/ob mice, 12 days
Protocol: (§1) A, SCD activity: Microsomes were prepared from hearts of PBS-treated, ob/ob, ob/ob pair-fed (PF), and leptin-treated (ob/ob-Leptin) mice, and SCD enzyme activity was determined by measuring the incorporation of radioactivity in oleoyl-CoA using [1-^14C]stearoyl-CoA as a substrate. The reaction products were separated by TLC, and the radioactivity was quantitated. Each value represents the mean±S.E. (n=4). B, Levels of monounsaturated fatty acids in the hearts of ob/ob mice: Total fatty acids were extracted from heart of ob/ob mice treated with either leptin or PBS and wild type controls quantitated by GLC as described in the example below. *, p<0.05 versus wt-PBS; #,p<0.05 versus ob/ob-PBS. C, Total RNA was prepared from hearts of PBS or leptin-treated ob/ob mice and used to measure SCD1, SCD2, and SCD4 mRNA levels by quantitative RT-PCR analysis. The fold change relative to that of wild type was calculated after correction for the levels of cyclophilin used as a standard. Each value represents the mean±S.E. (n=4).
(§2) Subcutaneous Leptin Treatment—ob/ob mice were individually caged and allowed to acclimate for a number of days prior to the start of the experiment. […] Body mass and food intake were measured daily. […]

SCD = SCD enzyme activity in heart microsomes of leptin-treated ob/ob mice; type: in vivo, mouse; conditions: leptin 12 days, [1-14C]stearoyl-CoA substrate, elevated 3-fold in untreated ob/ob
Protocol: as §1, §2

B1: leptin: recombinant mouse leptin (Amgen, Thousand Oaks, Calif.) (protein, UniProt P41160 22-167, looked up)
Leptin: VPIQKVQDDTKTLIKTIVTRINDISHTQSVSAKQRVTGLDFIPGLHPILSLSKMDQTLAVYQQVLTSLPSQNVLQIANDLENLRDLLHLLAFSKSCSLPQTSGLQKPESLDGVLEASLYSTEVVALSRLQGSLQDILQQLDVSPEC
decrease of SCD4 mRNA levels (mSCD4): greater than 75%
SCD activity in heart (SCD): completely normalized to wild type levels
